Test results: the supplement of paper PMC9170038

Test system: MS2 coat protein
Assay: apparent KD of MS2 coat protein; higher = weaker reporter binding
Conditions: Eterna round: R107
Experimental: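 RNA-MaP round R107: designed RNA switches with theophylline, tryptophan, arginine or FMN aptamers are transcribed on-chip within common flanks. They are titrated with SNAP-549-labelled MS2 coat protein in RNA-MaP buffer (100 mM Tris pH 7.5, 80 mM KCl, 4 mM MgCl2), without ligand or with the indicated ligand. Median apparent KD per design.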

[1] = input ligand: theophylline 20 uM
[2] = input ligand: theophylline 2 mM
[3] = input ligand: tryptophan 2.4 mM

Sequence | apparent KD of MS2 coat protein (input ligand: arginine 13.2 mM) | apparent KD of MS2 coat protein (input ligand: none) | apparent KD of MS2 coat protein [1] | apparent KD of MS2 coat protein [2] | apparent KD of MS2 coat protein [3]
UCCUCCUCCGCAAGGAGGAGGAGUUGCGAUACCAGCCCGGAAACGGGCCCUUGGCAGCGCACAUGAGGAUCACCCAUGUCAUGUU [#1 Exclusion - Theophylline A Attempt #8 (HarryS)] | 14.6 nM | 18.1 nM | 19.8 nM | 30.6 nM | 18 nM
GGGACACCGGGAAGGAGCGCAUCCAAACCACACAUGAGGAUCACCCAUGUAUAAAUAUGCAUGCAGGUAGGUCGCCCGAUGUCUC [Anrearradi] | 60.9 nM | 90.7 nM | 121 nM | 120 nM | 110 nM
UAAACUACACAUGAGGAUCACCCAUGUGGCCGAGGACCGGUACGGCCGCCACUCGUGUGUUAAUAAAAGAACUGCAAGGUUCUGU [Laorat] | 68.7 nM | – | 419 nM | 552 nM | –
UGUUUUUAUCGAAGGAGCGCCGCAUGAGGAUCACCCAUGCACAUGAGGAUCACCCAUGUCUGGCAGGUAGGUCGCGAUCAAUGGG [Same State Arginine B GF 11] | 33.7 nM | 41.9 nM | 48.7 nM | 47.9 nM | 44.3 nM
UACAUGAGGAUCACCCAUGUAUAACCGGUACGAGGACCGGUACGGCCGCCACUCGAAACAUGAGGAUCACCCAUGUGCUACUAUU [Same State Trypophan A GF 22] | 25.3 nM | – | 36.4 nM | 35.1 nM | –
CAGCACAUGAGGAUCACCCAUGUGAGGGAUACCAGCUCAGGCGUGGGCCCUUGGCAGCUCUCUGGCUGACGAAAGUCAGCCUGUG [#20 SameState-TheophyllineA] | 14.4 nM | – | 24.2 nM | – | 13.6 nM
GGAGCUACGUCGGCCGCCACUAGCGGGUAUUGCGUGUACAUGAGGAUCACCCAUGUAAUACGGCCUAGGACCGGGACGUAGCUCC [Raven] | 12.1 nM | – | 19.1 nM | 14.5 nM | 13.8 nM
GGUUACUCUACGGCCGCCACUGUAAUGUAAAGAUACCUGUACAUGACAUGAGGAUCACCCAUGUACAGGACCGGGUAGUGUAACC [Tryptophan B 17] | 144 nM | – | 312 nM | 343 nM | –
GAUGAACUAUAUGAUACCAGACAACAUGAGGAUCACCCAUGUGAAAGUCGUCCUCUGCCUGUCCCUUGGCAGCGUAUAGUUUAUC [XTheo B #14] | 61.1 nM | – | 76.1 nM | – | 28.4 nM
UAAAUAUUACUGGGUAAGGUAUAAAUAGAUACCAGCCAGAUAACUGGCCCUUGGCAGCUAAACAUGAGGAUCACCCAUGUAUAAU [TheoAS 20 #OpenEnded #Ms2Late] | 23.5 nM | – | 44 nM | – | 33.2 nM
CUCCCACUAUCUGAUACCAGAGGAUAAACGUAGACUGGGAACAUGAGGAUCACCCAUGUCCUCCCUUGGCAGCAGGACUUAUCUC [theeternabot_exclusion_MS2_Theo_B_29] | 22.2 nM | – | 29.9 nM | – | 22.2 nM
UUAUAAGUACCGGUCCUCAGAUCCUCAUGACGAGGACCGGUACGGCCGCCACUCGAAACAUGAGGAUCACCCAUGUAAUAAUAUC [Brourdmod09] | 20.6 nM | – | 56.6 nM | 59.3 nM | –
UUAAUCUUAUAUGAAAACAUAUAAGCAGAAGGAGCGUGAUAAAACACAGGUAGGUCGCUGAAGGGAACAUGAGGAUCACCCAUGU [AstrosSSArgA#4] | 22.7 nM | 22.4 nM | 33.8 nM | 30.6 nM | 28.4 nM
CGAUAUGAGGUCGAUACCAGCAGCUUCAAGCACAUGAGGAUCACCCAUGUCCAUUUUACUUGCCCUUGGCAGCGACUUUGGAAAC [theeternabot_sameState_MS2_Theo_B_23] | 36.2 nM | – | 34.9 nM | – | 38.4 nM
UACAUGAGGAUCACCCAUGUAUACAUGGAUACCAGCGACAAUGGGCGCCCUUGGCAGCUAGUGGAUGGAGGGUGGCCACAGUACU [Exclusion Theophyline A GF5] | 25.5 nM | – | 53.1 nM | – | 42.7 nM
AUGCGGUGCGGAAGGAGCGAGUUUGCCUAUUUACAUGAGGAUCACCCAUGUCCUAAUGGGACUCAGGUAGGUCGCCGUUGUCGCA [Same State Arginine B GF 29] | 47.7 nM | 45.5 nM | 65.5 nM | 49.9 nM | 52.1 nM
CGGCCCUCACUUGAGGAACACCCAAGUGAUACCAGCCUGGAAACAGGCCCUUGGCAGCACUAGGUCAUCAAAGAUGACCAAGCCG [TheoAX 29 #OpenEnded #AlternativeMS2] | 17.7 nM | 23.8 nM | 42.8 nM | 373 nM | 23.1 nM
AAGGGAGAGUCAGAUACCAGAGUAAGAUGGCAUGGUAAUUACAUGAGGAUCACCCAUGUAUUCCCUUGGCAGCUGACCCUACGUU [Exclusion Theophylline B GF 19] | 17.6 nM | 14.1 nM | 16.7 nM | 16.6 nM | 12.8 nM
GAUAUAUACUCGGCCGCCACUGAGAGAGUCAUGUAAACAUGAGGAUCACCCAUGUAAUAUAUAUACAGGACCGGGAGUAUAUUAA [4.C] | 16 nM | – | 16.1 nM | 14 nM | –

Sequence | apparent KD of MS2 coat protein (input ligand: arginine 13.2 mM) | apparent KD of MS2 coat protein (input ligand: none) | apparent KD of MS2 coat protein [1] | apparent KD of MS2 coat protein [2] | apparent KD of MS2 coat protein [3]
ACGUCAACCCUUAUGUUGAUGCAAGACGAUACCAGCCUGGAUACAGGCCCUUGGCAGCGUCAACAUGAGGAUCACCCAUGUAAUA [(T)''-(MT)'-(Theo)-(Ms2)] | 32.2 nM | – | 261 nM | – | 45.3 nM
GGUUGAUGACAUGAGGAUCACCCAUGUAGGCGAGGACCGGUACGGCCGCCACUCGACAUGAGGAUCACCCAUGUCGGCGUCCGUG | 14.3 nM | – | 19.9 nM | 18 nM | –
CAUACUUGAUCCUAUGAGCCUAUUUGUGAUACCAGCAUCUAAAUUUGCCCUUGGCAGCACUAACAUGAGGAUCACCCAUGUUAUA [JR_Nu_ExcTheophyA_Sub028] | 23.7 nM | – | 42.5 nM | – | 37 nM
AAAAGAGGUGGAAGGAGCGGGAGACAUGAGGAUCACCCAUGUGAUGUGACGAAAGGGUCAGCCCAGGUAGGUCGCCAUGUCGAAA [yuyymullin] | 54.6 nM | 62.9 nM | 76.2 nM | 134 nM | 27.3 nM
CCAUCUACAUCGGCCGCCACUGAACCAAGGAGACAUGAGGAUCACCCAUGUAUGGGAAACCAUCAUAGGACCGGGAUGAUCUACC [doubleHook] | 95.2 nM | – | 336 nM | 415 nM | –
AAAUAAAUAACUGAUACCAGUCGGACAACAUGAGGAUCACCCAUGUUCACCCAUGUUGAGGACCCUUGGCAGCAGAAAUAUAAAA [test (nupak+vienna] | 41.5 nM | – | 116 nM | – | 243 nM
AGACUUCGCAUAGGAAAACUAUGUGAAGUCCGAGGACCGGUACGGCCGCCACUCGUCCUCACAUGAGGAUCACCCAUGUAAAUAA [#OpenEnded 2 #CuTurnoff #Tail] | 22.7 nM | – | – | 24.5 nM | –
ACUUGAUACUGAAGGAGCGUCGGAUAAACUCGCACAUGAGGAUCACCCAUGUAUAUGAAUCGGCAGGUAGGUCGCAGUAUCGAGU [#21 Same State - Arginine B] | 14.8 nM | 15.6 nM | 20.4 nM | 17.1 nM | 15.4 nM
AAUAUAAGUGUAAUUAUAUUUAUAUCUGAUACCAGACUCUCAUGUGUCCCUUGGCAGCAGUUACAUGAGGAUCACCCAUGUAUUA [JR_Nu_SSTheophyA_Sub025] | 30.6 nM | – | 67.6 nM | – | 73.7 nM
ACAUGAGGAUCACCCAUGUCUGCCACUGAUACCAGCGGAUGCCAACGCCCUUGGCAGCAGAACAUGAGGAUCACCCAUGUAGGCA [Same State Theophylline A GF25] | 99.5 nM | – | 303 nM | – | 297 nM
CAUGACAUGAGGAUCACCCAUGUAUCCAGUCGAGGACCGGUACGGCCGCCACUCGGUGCCUUCAAAUUUACAGACAGGUGACAGG [theeternabot_sameState_MS2_Trp_A_30] | 26.2 nM | – | 42.9 nM | 39.6 nM | –
CGCCCAGUUACGGCCGCCACUUCGAUGGCAAAUGUCGAGCCUCCACAUGAGGAUCACCCAUGUCGAAGGACCGGGUACUGCUUGC [theeternabot_sameState_MS2_Trp_B_17] | 29.4 nM | – | 44.4 nM | 38 nM | –
CUCUGAGUCCGUAAGGACUCAGAGGCGGAUACCAGCGAGGUCCAUCGCCCUUGGCAGCCGAACAUGAGGAUCACCCAUGUCGGUA [#1 Same State - Theophylline A Attempt #25 (HarryS)] | 11.6 nM | 9.76 nM | 12.6 nM | 19.8 nM | 11.5 nM
CUCGUCAACUCGGCCGCCACUGACGUGUGGUCAGGCCUGUAGAAACACAUGAGGAUCACCCAUGUCAGGACCGGGAGCUUUAUUA [theeternabot_exclusion_MS2_Trp_B_26] | 31.8 nM | – | 73.5 nM | 61.6 nM | –
GGUUGGUGUAGAGAUAUAUUGAUUACUGAAGGAGCGGGACGAAACCCAGGUAGGUCGCAGAGAUCCACAUGAGGAUCACCCAUGU [!0.M] | 31.6 nM | 46.1 nM | 46.6 nM | 61.4 nM | 33.4 nM
GGGACAUCGGGAAGGAGCGCAUCCAAACCACACAUGAGGAUCACCCAUGUAUAAAUAUGCAUGCAGGUAGGUCGCCCGGUGUCUC [Ersoatus] | 79.5 nM | 104 nM | 131 nM | 117 nM | 121 nM
ACAUUUAACUGAAGGAGCGUGAUAAACAUGAGGAUCACCCAUGUACCAAAGAUUUUCAGUUCACAGGUAGGUCGCAGACUAAUGA [JR_ExcArginiB_Sub016] | 10.6 nM | 11.1 nM | 13.8 nM | 11.5 nM | 10.8 nM
AACAUGAGGAUCACCCAUGUCCCAUGUGAACGAGGACCGGUACGGCCGCCACUCGACUGAGGCGGCACAUGAGGAUCACCCACAU [whbob_SS_trypto A_2s12] | 151 nM | – | 207 nM | 269 nM | –
